Reference: PMC9052802

Target: RopC-U (thiazoline-containing product of the reaction of RopC with MicD-F) (UniProt P03051)
Assay: SEC

## RopC-U (thiazoline-containing product of the reaction of RopC with MicD-F) (from UniProt P03051 1-63) (natural protein)
  stoichiometry N: 2
